Measurements published in paper PMC10432850, “NME3 binds to phosphatidic acid and mediates PLD6-induced mitochondrial tethering” (The Journal of Cell Biology, 2023).

Target: the molecule itself
Experiment: cross-linking; 4 uM purified protein cross-linked with glutaraldehyde, detected by Western blotting

| Protein | binding result | stoichiometry N |
| --- | --- | --- |
| NME3^WT-His (natural protein, human, UniProt Q13232 1-169, looked up, NME3 (nucleoside diphosphate kinase 3), human, wild type; also called NME3-His; source: E. coli BL21, purified (HisPur Ni-NTA resin, dialysed); not shown: His, C-terminal, kept) MICLVLTIFANLFPAACTGAHERTFLAVKPDGVQRRLVGEIVRRFERKGFKLVALKLVQASEELLREHYAELRERPFYGRLVKYMASGPVVAMVWQGLDVVRTSRALIGATNPADAPPGTIRGDFCIEVGKNLIHGSDSVESARREIALWFRADELLCWEDSAGHWLYE | binds | – |
| NME3^ΔN-His (domain or fragment, human, UniProt Q13232 18-169, looked up, NME3 (nucleoside diphosphate kinase 3), human, lacking the N-terminal 17 amino acids (N17); also called N17 truncated NME3; source: E. coli BL21, purified (HisPur Ni-NTA resin, dialysed); not shown: His, C-terminal, kept) TGAHERTFLAVKPDGVQRRLVGEIVRRFERKGFKLVALKLVQASEELLREHYAELRERPFYGRLVKYMASGPVVAMVWQGLDVVRTSRALIGATNPADAPPGTIRGDFCIEVGKNLIHGSDSVESARREIALWFRADELLCWEDSAGHWLYE | – | 6 |
